This is an account of results in article PMC6393709.

The target of this experiment is PARP1 (protein used in the SPRi assay) (UniProt P09874). As to the kind of experiment: SPR; SPRi on a PlexArray HT (V3), 25°C, 1x PBS pH 7.4.

As a reminder, the Kd is the equilibrium constant for the complex coming apart. Low values mean a tighter complex, high ones a looser complex.

UniProt P09874, sequence (P09874 whole entry): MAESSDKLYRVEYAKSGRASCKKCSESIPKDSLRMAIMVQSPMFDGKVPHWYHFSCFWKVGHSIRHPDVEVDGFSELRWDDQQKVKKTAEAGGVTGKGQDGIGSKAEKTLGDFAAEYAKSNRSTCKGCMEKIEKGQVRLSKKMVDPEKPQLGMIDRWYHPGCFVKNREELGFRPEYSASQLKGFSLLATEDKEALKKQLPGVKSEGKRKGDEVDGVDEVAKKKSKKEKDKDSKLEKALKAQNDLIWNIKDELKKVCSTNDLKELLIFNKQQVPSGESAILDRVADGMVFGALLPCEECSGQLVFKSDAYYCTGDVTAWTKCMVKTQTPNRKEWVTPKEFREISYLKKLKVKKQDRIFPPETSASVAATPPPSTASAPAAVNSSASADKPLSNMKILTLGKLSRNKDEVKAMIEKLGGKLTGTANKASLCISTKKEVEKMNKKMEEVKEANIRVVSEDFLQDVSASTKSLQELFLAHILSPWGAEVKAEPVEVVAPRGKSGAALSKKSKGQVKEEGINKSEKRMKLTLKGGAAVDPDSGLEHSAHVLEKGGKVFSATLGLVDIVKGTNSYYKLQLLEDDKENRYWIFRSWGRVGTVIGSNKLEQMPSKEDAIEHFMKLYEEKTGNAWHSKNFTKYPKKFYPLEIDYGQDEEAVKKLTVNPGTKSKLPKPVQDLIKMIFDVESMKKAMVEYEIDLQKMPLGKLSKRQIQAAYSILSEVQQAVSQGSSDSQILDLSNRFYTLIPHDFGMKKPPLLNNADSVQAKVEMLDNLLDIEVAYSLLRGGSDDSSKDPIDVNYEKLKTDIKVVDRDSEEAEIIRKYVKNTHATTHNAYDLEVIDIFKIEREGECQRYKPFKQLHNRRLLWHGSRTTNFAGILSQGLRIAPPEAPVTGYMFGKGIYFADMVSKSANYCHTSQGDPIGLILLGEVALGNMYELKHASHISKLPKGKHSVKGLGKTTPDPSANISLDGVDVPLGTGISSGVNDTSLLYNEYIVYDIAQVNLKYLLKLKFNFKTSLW

The substance “F-actin domain of ABL1 (domain or fragment)” came in with a dissociation constant Kd of 13.6 nM.
